The target of experiment [1] is CyPet-(pre-SUMO2)-YPet (human) (UniProt P61956).
Experiment [2] deals with CyPet-(pre-SUMO3)-YPet (human) (UniProt P55854).
Experiment [3] concerns the target CyPet-(pre-SUMO1)-YPet (human) (UniProt P63165).
Sequence of UniProt P63165 (P63165 1-97): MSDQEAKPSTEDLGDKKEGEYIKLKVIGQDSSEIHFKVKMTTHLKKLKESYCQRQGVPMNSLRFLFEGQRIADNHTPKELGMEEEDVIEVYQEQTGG

Sequence of UniProt P61956 (P61956 whole entry): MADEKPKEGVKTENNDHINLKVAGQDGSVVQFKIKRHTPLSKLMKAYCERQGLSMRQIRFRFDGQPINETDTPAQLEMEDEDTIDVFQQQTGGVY
Sequence of UniProt P55854 (P55854 1-92): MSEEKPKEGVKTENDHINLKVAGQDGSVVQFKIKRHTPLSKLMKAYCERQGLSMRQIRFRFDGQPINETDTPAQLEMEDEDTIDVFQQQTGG

Turning to catalytic domain of SENP1 (enzyme), in experiment [1], the Km of the SENP1 catalytic domain for CyPet-(pre-SUMO2)-YPet, FRET-based protease assay, Michaelis-Menten fit, real-time detection (internal calibration) is 0.17 µM and the Km of the SENP1 catalytic domain for CyPet-(pre-SUMO2)-YPet, FRET-based protease assay, Michaelis-Menten fit, standard curve analysis was determined as 0.17 µM. Besides, in experiment [2], the Km of the SENP1 catalytic domain for CyPet-(pre-SUMO3)-YPet, FRET-based protease assay, Michaelis-Menten fit, real-time detection (internal calibration) was 1.99 µM and the Km of the SENP1 catalytic domain for CyPet-(pre-SUMO3)-YPet, FRET-based protease assay, Michaelis-Menten fit, standard curve analysis came out at 3.75 µM. Moreover, in experiment [3], the Km of the SENP1 catalytic domain for CyPet-(pre-SUMO1)-YPet, FRET-based protease assay, Michaelis-Menten fit, real-time detection (internal calibration) stood at 0.14 µM and the Km of the SENP1 catalytic domain for CyPet-(pre-SUMO1)-YPet, FRET-based protease assay, Michaelis-Menten fit, standard curve analysis turned out to be 0.18 µM.

These data come from article PMC3673099.
